From patent US20260209386A1 (MYTHIC THERAPEUTICS, published 2026)
Changes are numbered by the printed parent chain. Blank lines part the entries; values can stand above or below the binder they belong to.

Tests used:
[1] = biological target: T1, Human PTK7 Protein, His Tag (Acro Biosystems) (human, UniProt Q13308 31-704); assay: BLI, antibody on anti-human Fc sensor, 50 nM PTK7 at pH 7.4, dissociation at pH 7.4 or 5.4; 2 = substantially similar binding relative to parent
T1 construct: Bought recombinant protein; also called CCK4; tyrosine-protein kinase-like 7; not shown: His tag
T1 sequence: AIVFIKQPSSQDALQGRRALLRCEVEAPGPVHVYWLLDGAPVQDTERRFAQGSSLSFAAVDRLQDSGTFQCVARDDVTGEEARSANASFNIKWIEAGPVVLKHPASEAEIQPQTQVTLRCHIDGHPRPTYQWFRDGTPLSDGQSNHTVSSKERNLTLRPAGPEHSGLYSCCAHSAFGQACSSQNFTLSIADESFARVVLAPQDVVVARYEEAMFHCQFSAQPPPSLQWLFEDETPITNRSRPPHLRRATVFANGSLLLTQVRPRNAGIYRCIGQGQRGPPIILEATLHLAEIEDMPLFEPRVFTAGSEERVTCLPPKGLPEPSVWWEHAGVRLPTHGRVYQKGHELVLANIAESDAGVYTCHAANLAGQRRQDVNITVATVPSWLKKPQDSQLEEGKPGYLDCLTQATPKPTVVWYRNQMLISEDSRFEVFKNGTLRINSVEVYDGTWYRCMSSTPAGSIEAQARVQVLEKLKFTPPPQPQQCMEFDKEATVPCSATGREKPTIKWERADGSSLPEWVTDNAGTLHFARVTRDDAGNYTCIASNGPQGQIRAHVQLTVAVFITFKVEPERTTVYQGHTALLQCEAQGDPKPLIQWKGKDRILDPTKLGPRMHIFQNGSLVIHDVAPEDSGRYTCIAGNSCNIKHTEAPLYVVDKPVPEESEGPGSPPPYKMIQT

[2] = biological target: T2, Human PTK7 Protein, His Tag, Acro Biosystems (human, UniProt Q13308 31-704); assay: BLI (Octet), antibody on anti-human Fc sensor, 50 nM PTK7, dissociation at pH 7.4 or 5.4; 2 = substantially similar binding relative to parent
T2 construct: Bought protein; also called CCK4; not shown: His tag
T2 sequence: T1 sequence

B1: MYT11341 (antibody, V domains shown)
VH: EVQLVESGGGLVQPGGSLRLSCTASGIHLSNYAVIWVRQAPGKGLEWVGIIYTYDTTYYANWAKGRFTISRDTSKNTVYLQMNSLRAEDTAVYFCARSFSDISDLIKLWGQGTLVTVSS
VL: EIVMTQSPSTLSASVGDRVIITCQASQSLYNNKDLAWYQQKPGKAPKLLIYEASKLASGVPSRFSGSGSGAEFTLTISSLQPDDFATYYCLGEFSCGSGDCLAFGQGTKLTVL
notes: MYT9797 HC variant; captured via anti-human Fc
binding result [1]: binds

B2: MYT11339 (antibody, V domains shown)
VH: B1 VH with G26H, H28D
VL: B1 VL
notes: as for B1
binding result [1]: binds

B3: MYT11358 (antibody, V domains shown)
VH: B1 VH with H28D, Y59H
VL: B1 VL
notes: as for B1
binding result [1]: binds

B4: MYT11343 (antibody, V domains shown)
VH: B1 VH with H28D, S30H
VL: B1 VL
notes: as for B1
binding result [1]: binds

B5: MYT11342 (antibody, V domains shown)
VH: B1 VH with H28D, L29H
VL: B1 VL
notes: as for B1
binding result [1]: binds

B6: MYT11347 (antibody, V domains shown)
VH: B1 VH with H28D, V34H
VL: B1 VL
notes: as for B1
binding result [1]: binds

B7: MYT11348 (antibody, V domains shown)
VH: B1 VH with H28D, I35H
VL: B1 VL
notes: as for B1
binding result [1]: binds

B8: MYT11362 (antibody, V domains shown)
VH: B1 VH with H28D, A63H
VL: B1 VL
notes: as for B1
binding result [1]: binds

B9: MYT11360 (antibody, V domains shown)
VH: B1 VH with H28D, N61H
VL: B1 VL
notes: as for B1
binding result [1]: binds

B10: MYT11366 (antibody, V domains shown)
VH: B1 VH with H28D, R97H
VL: B1 VL
notes: as for B1
binding result [1]: binds

B11: MYT11340 (antibody, V domains shown)
VH: B1 VH with I27H, H28D
VL: B1 VL
notes: as for B1
binding result [1]: binds

B12: MYT11344 (antibody, V domains shown)
VH: B1 VH with H28D, N31H
VL: B1 VL
notes: as for B1
binding result [1]: binds

B13: MYT11359 (antibody, V domains shown)
VH: B1 VH with H28D, A60H
VL: B1 VL
notes: as for B1
binding result [1]: binds

B14: MYT11345 (antibody, V domains shown)
VH: B1 VH with H28D, Y32H
VL: B1 VL
notes: as for B1
binding result [1]: binds

B15: MYT11364 (antibody, V domains shown)
VH: B1 VH with H28D, G65H
VL: B1 VL
notes: as for B1
binding result [1]: binds

B16: MYT11350 (antibody, V domains shown)
VH: B1 VH with H28D, I51H
VL: B1 VL
notes: as for B1
binding result [1]: binds

B17: MYT11361 (antibody, V domains shown)
VH: B1 VH with H28D, W62H
VL: B1 VL
notes: as for B1
binding result [1]: binds

B18: MYT11368 (antibody, V domains shown)
VH: B1 VH with H28D, F99H
VL: B1 VL
notes: as for B1
binding result [1]: binds

B19: MYT11375 (antibody, V domains shown)
VH: B1 VH with H28D, I106H
VL: B1 VL
notes: as for B1
binding result [1]: binds

B20: MYT11226 (antibody, V domains shown)
VH: EVQLVESGGGLVQPGGSLRLSCTASGIDLSSYVMGWVRQAPGKGLEWVGYIYGGGGTYYATWARGRFTISRDTSKNTVYLQMNSLRAEDTAVYFCARAAADFYFNLWGQGTLVTVSS
VL: EIVMTQSPSTLSASVGDRVIITCQASQSIHSYLAWYQQKPGKAPKLLIYDISDLASGVPSRFSGSGSGAEFTLTISSLQPDDFATYYCQSYYWISNSGAAFGQGTKLTVL
notes: LC variant of MYT9460, sub at LCV pos 30 (L1 07)
binding result [2]: binds

B21: MYT11242 (antibody, V domains shown)
VH: B20 VH
VL: B20 VL with H30S, W93H
notes: LC variant of MYT9460, sub at LCV pos 93 (L3 05)
binding result [2]: binds

B22: MYT11234 (antibody, V domains shown)
VH: B20 VH
VL: B20 VL with H30S, D53H
notes: LC variant of MYT9460, sub at LCV pos 53 (L2 04)
binding result [2]: binds

Continued, values first:

binding result [2]: binds
B23: MYT11241 (antibody, V domains shown)
VH: B20 VH
VL: B20 VL with H30S, Y92H
notes: LC variant of MYT9460, sub at LCV pos 92 (L3 04)

binding result [2]: binds
B24: MYT11227 (antibody, V domains shown)
VH: B20 VH
VL: B20 VL with H30S, S31H
notes: LC variant of MYT9460, sub at LCV pos 31 (L1 08)

binding result [2]: binds
B25: MYT11252 (antibody, V domains shown)
VH: B20 VH
VL: B20 VL with H30S, D53A
notes: LC variant of MYT9460, Ala sub at LCV pos 53 (L2 04)

binding result [2]: binds
B26: MYT11251 (antibody, V domains shown)
VH: B20 VH
VL: B20 VL with H30S, D50A
notes: LC variant of MYT9460, Ala sub at LCV pos 50 (L2 01)

binding result [2]: binds
B27: MYT11231 (antibody, V domains shown)
VH: B20 VH
VL: B20 VL with H30S, D50H
notes: LC variant of MYT9460, sub at LCV pos 50 (L2 01)

binding result [2]: binds
B28: MYT11239 (antibody, V domains shown)
VH: B20 VH
VL: B20 VL with H30S, S90H
notes: LC variant of MYT9460, sub at LCV pos 90 (L3 02)

binding result [2]: binds
B29: MYT11237 (antibody, V domains shown)
VH: B20 VH
VL: B20 VL with H30S, S56H
notes: LC variant of MYT9460, sub at LCV pos 56 (L2 07)

binding result [2]: binds
B30: MYT11228 (antibody, V domains shown)
VH: B20 VH
VL: B20 VL with H30S, Y32H
notes: LC variant of MYT9460, sub at LCV pos 32 (L1 09)

binding result [2]: binds
B31: MYT11235 (antibody, V domains shown)
VH: B20 VH
VL: B20 VL with H30S, L54H
notes: LC variant of MYT9460, sub at LCV pos 54 (L2 05)

binding result [2]: binds
B32: MYT11233 (antibody, V domains shown)
VH: B20 VH
VL: B20 VL with H30S, S52H
notes: LC variant of MYT9460, sub at LCV pos 52 (L2 03)
